The values below come from patent US20250313627A1 (FUSE BIOTHERAPEUTICS, published 2025).

B1: FUSE-593 (h5A1-FA9-HK5_Fc) (Fc fusion)
chain: EVQLLESGGGLVQRGGSLRLSCAASGYTNRLKCMGWFRQAPGKEREEIASISTGTGNTYYSDSVKGRFTISRDKSRNTLYLQLNSLKAEDTAVYYCAADVRPKGTTCHYNSRGQGTQVTVSS
notes: VHH-Fc format; not shown: Fc of the VHH-Fc format
B2: FUSE-594 (h5A1-FA9-HK6_Fc) (Fc fusion)
chain: B1 chain with Q13P, A23T, S61A, R72Q, L83M, K103R
notes: as for B1
B3: FUSE-590 (h5A1-FA9-HK2_Fc) (Fc fusion)
chain: B1 chain with A23T, L83M, N84K, K87R, K103R
notes: as for B1
B4: FUSE-595 (h5A1-FA9-HK7_Fc) (Fc fusion)
chain: B1 chain with A23T, S50T, S61A, L83M, N84K
notes: as for B1
B5: FUSE-592 (h5A1-FA9-HK4_Fc) (Fc fusion)
chain: B1 chain with Q13P, I48V, S61A, R72Q, K87R, K103R
notes: as for B1
B6: FUSE-591 (h5A1-FA9-HK3_Fc) (Fc fusion)
chain: B1 chain with Q13P, S50T, S61A, R72Q, L83M, S111K
notes: as for B1
B7: FUSE-596 (h5A1-FA9-HK8 Fc) (Fc fusion)
chain: B1 chain with Q13P, A23T, Q82K, N84K, K87R, K103D
notes: as for B1
B8: FUSE-589 (h2A11-HK5 Fc) (Fc fusion)
chain: EVQLLESGGGLVQPGGSLRLSCAASGSTYSANCMGWFRQAPGKERELASMSIRSGRTYYADSVKGRFTISQDGSKNTLYLQMNSLKAEDTAVYYCAAAYGGSRCVYNYRGQGTLVTVSS
notes: as for B1
B9: FUSE-655 - h5A1-FA9-HK6-N84S Fc (Fc fusion)
chain: B1 chain with Q13P, A23T, S61A, R72Q, L83M, N84S, K103R
notes: as for B1
B10: FUSE-654 - h5A1-FA9-HK6-R19K Fc (Fc fusion)
chain: B1 chain with Q13P, R19K, A23T, S61A, R72Q, L83M, K103R
notes: as for B1
B11: FUSE-661 - h2A11-HK2-3-N84S Fc (Fc fusion)
chain: B8 chain with T28Q, Y29R, E44D, Q71R, G73S, N83S
notes: as for B1
B12: FUSE-662 - h2A11-HK2-16-N84S Fc (Fc fusion)
chain: B8 chain with S27V, T28G, E44D, Q71R, G73S, N83S
notes: as for B1
B13: BI-HU9-VH9 h5A1 Fc (Fc fusion)
chain: EVQLLESGGGLVPRGGSLRLSCTASGYTNRLKCMGWFRQAPGKEREEIATISTGTGNTYYADSVKGRFTISRDNSRNTLYLQMKTLRAEDTAVYYCAADVRPDGTTCHYNSWGQGTQVTVSS
notes: VHH-Fc format; same VHH as FUSE-497; not shown: Fc of the VHH-Fc format
B14: BI-HU9-HK-1 h5A1 Fc (Fc fusion)
chain: B1 chain with R14P, I48V, S61A, R72Q, R76K, L83M, K103D, Q117L
notes: as for B1
B15: BI-HU9-VHH31 h5A1 Fc (Fc fusion)
chain: EVQLVESGGGLVQPGGSLRLSCAASGFTVRLKCMGWFRQAPGKGLEEVATISTGTGNTYYADSVKGRFTISRDNSKNTLYLQMNSLRAEDTAVYYCAADVRPDGTTCHYNSWGQGTTVTVSS
notes: as for B1
B16: BI-HU9-VH9-1 h5A1 Fc (Fc fusion)
chain: B13 chain with R72Q, N74K
notes: as for B1
B17: FUSE-560 (h2A11-HK2 Fc) (Fc fusion)
chain: B8 chain with Q71R, G73S
notes: as for B1
B18: FUSE-562 (h2A11-HK4 Fc) (Fc fusion)
chain: B8 chain with A60S, Q71R
notes: as for B1
B19: FUSE-561 (h2A11-HK3 Fc) (Fc fusion)
chain: B8 chain with Q71R, G73S, K86R
notes: as for B1
B20: F221581016 (h5A1-BI-016 Fc) (Fc fusion)
chain: B1 chain with R14P, I48V, T58A, S61A, R72Q, R76K, L83M, K103H, Q117L
notes: VHH-Fc format; also called F22158116; not shown: Fc of the VHH-Fc format
B21: F22158109 (h5A1-BI-009 Fc) (Fc fusion)
chain: EVQLLESGGGLVQPGGSLRLSCAASGYTNRIKCMGWFRQAPGKEREEVASISTGTGNSYYADSVKGRFTISQDKSKNTLYLQMNSLKAEDTAVYYCAADVRPDGRTCHYNKRGQGTLVTVSS
notes: as for B1
B22: F221581020 (h5A1-BI-020 Fc) (Fc fusion)
chain: B21 chain with I31L, S58A, D103H, R105T
notes: VHH-Fc format; also called F22158120; not shown: Fc of the VHH-Fc format
B23: F221581019 (h5A1-BI-019 Fc) (Fc fusion)
chain: B21 chain with S58A, D103H, K111S
notes: VHH-Fc format; also called F22158119; not shown: Fc of the VHH-Fc format
B24: F22158102 (h5A1-BI-002 Fc) (Fc fusion)
chain: B21 chain with S58T, R105T
notes: as for B1
B25: F22158105 (h5A1-BI-005 Fc) (Fc fusion)
chain: B21 chain with I31L, S58T, R105F
notes: as for B1
B26: F221581017 (h5A1-BI-017 Fc) (Fc fusion)
chain: B21 chain with S58A, D103H, R105T, K111S
notes: VHH-Fc format; also called F22158117; not shown: Fc of the VHH-Fc format
B27: F221581013 (h5A1-BI-013 Fc) (Fc fusion)
chain: B21 chain with I31L, S58T, D103F, R105T
notes: VHH-Fc format; also called F22158113; not shown: Fc of the VHH-Fc format
B28: F221581014 (h5A1-BI-014 Fc) (Fc fusion)
chain: B21 chain with S58T, D103F, K111S
notes: VHH-Fc format; also called F22158114; not shown: Fc of the VHH-Fc format
B29: F221581010 (h5A1-BI-010 Fc) (Fc fusion)
chain: B21 chain with I31L, S58T
notes: VHH-Fc format; also called F22158110; not shown: Fc of the VHH-Fc format
B30: F221581018 (h5A1-BI-018 Fc) (Fc fusion)
chain: B21 chain with I31L, S58A, D103H, K111S
notes: VHH-Fc format; also called F22158118; not shown: Fc of the VHH-Fc format
B31: F22158101 (h5A1-BI-001 Fc) (Fc fusion)
chain: B21 chain with S58T, R105F, K111S
notes: as for B1
B32: F22158106 (h5A1-BI-006 Fc) (Fc fusion)
chain: B21 chain with S58T, K111S
notes: as for B1
B33: F221581011 (h5A1-BI-011 Fc) (Fc fusion)
chain: B21 chain with S58T, D103F, R105T, K111S
notes: VHH-Fc format; also called F22158111; not shown: Fc of the VHH-Fc format
B34: F221581012 (h5A1-BI-012 Fc) (Fc fusion)
chain: B21 chain with I31L, S58T, D103F, K111S
notes: VHH-Fc format; also called F22158112; not shown: Fc of the VHH-Fc format
B35: F221581021 (h5A1-BI-021 Fc) (Fc fusion)
chain: B21 chain with S58A, D103H, R105T
notes: VHH-Fc format; also called F22158121; not shown: Fc of the VHH-Fc format
B36: F221581015 (h5A1-BI-015 Fc) (Fc fusion)
chain: B21 chain with S58T, D103F, R105T
notes: VHH-Fc format; also called F22158115; not shown: Fc of the VHH-Fc format
B37: F22158107 (h5A1-BI-007 Fc) (Fc fusion)
chain: B21 chain with I31L, S58A, K111S
notes: as for B1
B38: F22158103 (h5A1-BI-003 Fc) (Fc fusion)
chain: B21 chain with I31L, S58A, R105T
notes: as for B1
B39: F22158108 (h5A1-BI-008 Fc) (Fc fusion)
chain: B21 chain with S58A, K111S
notes: as for B1
B40: F22158104 (h5A1-BI-004 Fc) (Fc fusion)
chain: B21 chain with S58A, R105T
notes: as for B1

Numbering of substitutions follows the chain as printed. Numbers in names are those of the source.

The target of the first assay is T1, human ROR1 (Receptor Tyrosine Kinase-Like Orphan Receptor 1) on the cell surface (human, UniProt Q01973 30-937).
T1 construct: whole, on cells; engineered into B16-F10 (high density) and LS174T (low density) cells; also called B16-F10-ROR1-H; LS174T-ROR1-L
T1 sequence (Q01973 30-937): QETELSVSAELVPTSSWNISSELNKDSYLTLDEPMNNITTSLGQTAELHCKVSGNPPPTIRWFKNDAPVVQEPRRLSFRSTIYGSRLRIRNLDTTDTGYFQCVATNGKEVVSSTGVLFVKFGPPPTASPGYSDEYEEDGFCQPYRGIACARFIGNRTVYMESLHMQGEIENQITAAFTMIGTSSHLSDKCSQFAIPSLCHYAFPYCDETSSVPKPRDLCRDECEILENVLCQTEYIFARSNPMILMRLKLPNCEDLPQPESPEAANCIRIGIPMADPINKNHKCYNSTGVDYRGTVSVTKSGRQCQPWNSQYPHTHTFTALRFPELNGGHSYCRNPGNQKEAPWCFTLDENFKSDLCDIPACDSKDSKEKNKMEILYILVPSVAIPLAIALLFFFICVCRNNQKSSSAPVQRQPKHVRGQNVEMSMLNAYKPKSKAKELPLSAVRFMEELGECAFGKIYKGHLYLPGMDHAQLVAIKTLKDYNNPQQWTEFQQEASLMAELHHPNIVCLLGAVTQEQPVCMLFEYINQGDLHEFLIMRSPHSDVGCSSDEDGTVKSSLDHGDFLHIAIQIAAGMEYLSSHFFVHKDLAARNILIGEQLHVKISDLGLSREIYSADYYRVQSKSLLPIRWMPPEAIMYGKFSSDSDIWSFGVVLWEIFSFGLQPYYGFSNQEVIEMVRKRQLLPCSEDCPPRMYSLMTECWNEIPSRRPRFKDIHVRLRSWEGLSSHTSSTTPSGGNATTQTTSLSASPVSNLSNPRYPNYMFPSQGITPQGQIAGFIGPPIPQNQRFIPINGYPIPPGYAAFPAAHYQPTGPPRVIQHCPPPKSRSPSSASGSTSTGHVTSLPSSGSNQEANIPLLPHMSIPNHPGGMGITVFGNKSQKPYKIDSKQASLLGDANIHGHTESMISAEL
In words: flow cytometry, B16-F10 cells expressing human ROR1 (high density). As to the method: (§1) As shown in the tables below, mouse B16-F10 melanoma (Tables 9A-9F) or LS174T human colorectal adenocarcinoma (Tables 9G-9H) cells genetically engineered to express human ROR1 at high and low densities, respectively, were stained for flow cytometric analysis with 100 nM of humanized variants of the ROR1 specific VHHs, 5A1 or 2A11 in either a VHH-Fc format or the Ac13 format shown in FIG. 1. Cells were analyzed on a flow cytometer after the primary test article was fluorescently tagged with a goat anti human IgG-Fc specific PE secondary antibody. The positive control used was PE conjugated anti-human ROR1 clone 2A2. Negative controls included a PE labeled mouse IgG Ab, the secondary antibody only, the combination of a Hen Egg Lysozyme (HEL) specific antibody plus goat anti human IgG-Fc specific PE and Fluorescence Minus One (FMO). Other controls included the non-humanized version of 5A1-Fc (FUSE179), 2A11-Fc (FUSE112) and 5A1-Ac13 (FUSE488). Humanized variants were generated using computational design (FUSE489, FUSE497-498, FUSE563, FUSE569-570, and BI-HU9-VHH11-33), a yeast display library in which mutations were inserted into the Vernier zone residues of human framework indicated in GenBank accession number M99660 (FUSE524-525, FUSE589, FUSE597-598, FUSE537, FUSE661-662, BI-HU9-HK and BI-HU9-HK-1), and a second yeast display library in which mutations were inserted into the Vernier zone residues of human framework indicated in GenBank accession number AWH66715 and amino acid position 103 within CDR3 (FUSE559, FUSE590-596, BI-HU9-VH9-1, FUSE654-655 and FUSE661-662. Affinity matured variants of FUSE559 were also generated using computational design (F22158101-21; Table 9H).
(In general: Flow cytometry measures light scatter and fluorescence of single cells or particles in a stream.)
As to B1, the MFI came to 7520.
The same measure, in the same setting: as for B2, the figure is 7910; as for B3, 7330; as for B4, 7180.
Take B5: the MFI is 7540.
B6: the MFI worked out at 7770.
In the case of B7, the MFI was determined as 6260.
In the case of B8, the MFI was 6950.

A further assay has as its target T1, human ROR1 (Receptor Tyrosine …). In words: flow cytometry, LS174T cells expressing human ROR1 (low density). As to the method:
as §1
Consider B9, for which the MFI was found to be 4010.
Turning to B10, the MFI came to 4560.
With B11, the MFI is 4880.
As for B12, the MFI came out at 4350.

For the next assay the target is unchanged. The assay is described as follows: flow cytometry, B16-F10 cells expressing human ROR1 (high density). This is another data set of the same source. As to the method: as §1
For B13, the MFI is 14400.
Turning to B14, the MFI was found to be 136000.
On the same count and under the same terms, next, B15: 17900; B16: 16600.
Regarding B17, the MFI came out at 159000.
As for B18, the MFI is 155000.
As for B19, the MFI came out at 157000.

The target is the same in another assay. The assay is described as follows: flow cytometry, LS174T cells expressing human ROR1 (low density). This is another data set of the same source. Here is the method: as §1
Turning to B20, the MFI was found to be 15000.
As to B21, the MFI stood at 35000.
For the molecule B22, the MFI turned out to be 26500.
Still for that read-out and setting: as for B23, the figure is 33800; as for B24, 20500; as for B25, 22300.
As to B26, the MFI came out at 28600.
Same read-out and setting: next, B27: 23800; B28: 28700.
B29: the MFI came to 18700.
As for B30, the MFI was 17500.
In the case of B31, the MFI is 19700.
Take B32: the MFI is 17400.
For the molecule B33, the MFI stood at 19400.
Still for that read-out and setting: next, B34: 14200; B35: 35800; B36: 29300.
With B37, the MFI was 11500.
B38: the MFI is 15800.
For the molecule B39, the MFI was found to be 25100.
Same read-out and setting: next, B40: 28900.
